Measurements as given in paper PMC10477112, “APP-BACE1 Interaction and Intracellular Localization Regulate Aβ Production in iPSC-Derived Cortical Neurons” (Cellular and Molecular Neurobiology, 2023).

Molecular target: T1, APP-derived C-terminal fragment (APP-CTF) (human (endogenous in iPSC-derived NPCs …, UniProt P05067 672-770))
T1 construct: also called C-terminal APP; C-termAPP; source: endogenous, human iPSC-derived NPCs and cortical neurons, fixed cells
Experiment: proximity ligation; DuoLink PLA on fixed (4% PFA), permeabilised human iPSC-derived NPCs (day 45) and neurons (day 75); primary antibodies against APP (N-terminal or C-terminal), BACE1 and PSEN1; proximity of maximum 40 nm; PLA dot area divided by nuclear area
Settings: partners not purified

- fold PLA colocalization against flAPP/BACE1 in NPCs (calculated): ≥ 6.7 times
B1: BACE1 (beta-secretase) (enzyme, UniProt P56817 46-501, looked up)
chain: ETDEEPEEPGRRGSFVEMVDNLRGKSGQGYYVEMTVGSPPQTLNILVDTGSSNFAVGAAPHPFLHRYYQRQLSSTYRDLRKGVYVPYTQGKWEGELGTDLVSIPHGPNVTVRANIAAITESDKFFINGSNWEGILGLAYAEIARPDDSLEPFFDSLVKQTHVPNLFSLQLCGAGFPLNQSEVLASVGGSMIIGGIDHSLYTGSLWYTPIRREWYYEVIIVRVEINGQDLKMDCKEYNYDKSIVDSGTTNLRLPKKVFEAAVKSIKAASSTEKFPDGFWLGEQLVCWQAGTTPWNIFPVISLYLMGEVTNQSFRITILPQQYLRPVEDVATSQDDCYKFAISQSSTGTVMGAVIMEGFYVVFDRARKRIGFAVSACHVHDEFRTAAVEGPFVTLDMEDCGYNIPQTDESTLMTIAYVMAAICALFMLPLCLMVCQWRCLRCLRQQHDDFADDISLLK
notes: BACE1, human, endogenous; also called β-secretase; source: endogenous, human iPSC-derived NPCs and cortical neurons, fixed cells; endogenous, SH-SY5Y cells, fixed
